Results: article PMC5404824, “Engineering Nucleotide Specificity of Succinyl-CoA Synthetase in Blastocystis: The Emerging Role of Gatekeeper Residues” (Biochemistry, 2016)

System: Nc1nc2c(ncn2[C@@H]2O[C@H](COP(=O)(O)OP(=O)(O)OP(=O)(O)O)[C@@H](O)[C@H]2O)c(=O)[nH]1
Experiment: purified protein
Type: biochemical, Blastocystis hominis
Conditions: 129 μM CoA, 10 mM succinate, 50 mM KCl, 10 mM MgCl2, 50 mM Tris-HCl pH 7.4, 30 nM enzyme

Question: How did the Km turn out when “Blastocystis SCS (succinyl-CoA synthetase, SCSα + SCSβ) (Blastocystis sp. ATCC 50177/Nand II; K128D/K60E)” was run?
Answer: 143 ± 17 µM

Question: And the kcat?
Answer: 0.0195 ± 0.001 s⁻¹

Question: And the kcat/Km?
Answer: 136 M⁻¹ s⁻¹

Question: What does the source list for “Blastocystis SCS (succinyl-CoA synthetase, SCSα + SCSβ) (Blastocystis sp. ATCC 50177/Nand II; K128D/K60E/L241F/V127L)”?
Answer: Km: 82 ± 12 µM; kcat: 0.0078 ± 0.0004 s⁻¹; kcat/Km: 96 M⁻¹ s⁻¹
